Data as given in patent US11260115B1, “Peptides and combination of peptides for use in immunotherapy against CLL and other cancers” (immatics biotechnologies GmbH, priority 2015, dated 2022).

target: HLA-A*02:01 (Homo sapiens, UniProt P04439, D140Y/D185E/D98H/E176V/E277Q/G131W/G231S/I119V/I121R/I166T/I218V/L300P/L318F/N151K/N90K/P208A/P217A/Q86G/Q94H/R138H/R169H/T345S); test: MHC binding assay (UV-ligand exchange, β2m ELISA, peptide exchange yield); details: binding to HLA-A*02:01
In short: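 Peptide-HLA-A*02:01 complexes formed by UV-mediated exchange of a photocleavable ligand; exchange yield measured by streptavidin-capture ELISA detecting β2m with HRP anti-β2m, TMB read at 450 nm. Refolded monomer standards 15-500 ng/ml; samples diluted 100-fold.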

Row | Peptide Exchange (MHC class I binding score, peptide exchange yield) | Substance
1 | “+++” (>50 = +++) | 82 (GLQSGVDIGV; listed as Homo sapiens) [compound 82]
2 | “+++” (>50 = +++) | 209 (ILQAELPSL; listed as Homo sapiens) [compound 209]
3 | “+++” (>50 = +++) | 217 (ALDEPPYLTV; listed as Homo sapiens) [compound 217]
4 | “+++” (>50 = +++) | 345 (YLIEPDVELQRI; listed as Homo sapiens) [compound 345]
5 | “+++” (>50 = +++) | 292 (AAALIIHHV; listed as Homo sapiens) [compound 292]
6 | “+” (>10% = +) | 131 (LQALEVLKI; listed as Homo sapiens) [compound 131]
7 | “+++” (>50 = +++) | 227 (FLAEASVMTQL; listed as Homo sapiens) [compound 227]
8 | “+++” (>50 = +++) | 161 (SMDDGMINV; listed as Homo sapiens) [compound 161]
9 | “+++” (>50 = +++) | 219 (ALLNLLESA; listed as Homo sapiens) [compound 219]
10 | “++++” (>75% = ++++) | 23 (ALYLTEVFL; listed as Homo sapiens) [compound 23]
11 | “++” (>20% = ++) | 284 (LLSAAEPVPA; listed as Homo sapiens) [compound 284]
12 | “+++” (>50 = +++) | 39 (FLDALLTDV; listed as Homo sapiens) [compound 39]
13 | “+++” (>50 = +++) | 272 (VLDELPPLI; listed as Homo sapiens) [compound 272]
14 | “+++” (>50 = +++) | 377 (VVDGTCVAV; listed as Homo sapiens) [compound 377]
15 | “+++” (>50 = +++) | 301 (AASPIITLV; listed as Homo sapiens) [compound 301]
16 | “+++” (>50 = +++) | 176 (VLAEQNIIPSA; listed as Homo sapiens) [compound 176]
17 | “++++” (>75% = ++++) | 328 (VLLPQETAEIHL; listed as Homo sapiens) [compound 328]
18 | “+++” (>50 = +++) | 53 (FLWQHVELVL; listed as Homo sapiens) [compound 53]
19 | “+++” (>50 = +++) | 309 (ILYGTQFVL; listed as Homo sapiens) [compound 309]
20 | “+” (>10% = +) | 68 (GLDQQFAGLDL; listed as Homo sapiens) [compound 68]
21 | “+++” (>50 = +++) | 282 (LLRDGIELV; listed as Homo sapiens) [compound 282]

Row | Peptide Exchange (MHC class I binding score, peptide exchange yield) | Substance
22 | “+++” (>50 = +++) | 155 (SLMLEVPAL; listed as Homo sapiens) [compound 155]
23 | “++” (>20% = ++) | 277 (VMILKLPFL; listed as Homo sapiens) [compound 277]
24 | “++” (>20% = ++) | 84 (GVMDVNTAL; listed as Homo sapiens) [compound 84]
25 | “+++” (>50 = +++) | 355 (FIWPMLIHI; listed as Homo sapiens) [compound 355]
26 | “++” (>20% = ++) | 162 (SMKDDLENV; listed as Homo sapiens) [compound 162]
27 | “+++” (>50 = +++) | 100 (ILNNEVFAI; listed as Homo sapiens) [compound 100]
28 | “+++” (>50 = +++) | 178 (VLFFNVQEV; listed as Homo sapiens) [compound 178]
29 | “+++” (>50 = +++) | 179 (VLLGLEMTL; listed as Homo sapiens) [compound 179]
30 | “+++” (>50 = +++) | 203 (ALLSSQLAL; listed as Homo sapiens) [compound 203]
31 | “++” (>20% = ++) | 185 (VMDDQRDLI; listed as Homo sapiens) [compound 185]
32 | “+++” (>50 = +++) | 363 (ITTEVVNELYV; listed as Homo sapiens) [compound 363]
33 | “+++” (>50 = +++) | 283 (ILQPMDIHV; listed as Homo sapiens) [compound 283]
34 | “+++” (>50 = +++) | 66 (SLAGGLDDMKA; listed as Homo sapiens) [compound 66]
35 | “+++” (>50 = +++) | 71 (GLKHDIARV; listed as Homo sapiens) [compound 71]
36 | “++++” (>75% = ++++) | 287 (FLWEEKFNSL; listed as Homo sapiens) [compound 287]
37 | “+++” (>50 = +++) | 235 (GLDDLLLFL; listed as Homo sapiens) [compound 235]
38 | “+++” (>50 = +++) | 352 (ALVFELHYV; listed as Homo sapiens) [compound 352]
39 | “+++” (>50 = +++) | 208 (ILLKTEGINL; listed as Homo sapiens) [compound 208]
40 | “++” (>20% = ++) | 248 (KTVEPPISQV; listed as Homo sapiens) [compound 248]
41 | “+++” (>50 = +++) | 90 (VIADLGLIRV; listed as Homo sapiens) [compound 90]
42 | “+++” (>50 = +++) | 64 (KLLESVASA; listed as Homo sapiens) [compound 64]

Row | Peptide Exchange (MHC class I binding score, peptide exchange yield) | Substance
43 | “+++” (>50 = +++) | 258 (RLDYITAEI; listed as Homo sapiens) [compound 258]
44 | “++” (>20% = ++) | 136 (NLDKLWTLV; listed as Homo sapiens) [compound 136]
45 | “++” (>20% = ++) | 306 (VVAEELENV; listed as Homo sapiens) [compound 306]
46 | “++++” (>75% = ++++) | 384 (YMIGSEVGNYL; listed as Homo sapiens) [compound 384]
47 | “+++” (>50 = +++) | 362 (ILTELGGFEV; listed as Homo sapiens) [compound 362]
48 | “+++” (>50 = +++) | 339 (GLWGTVVNI; listed as Homo sapiens) [compound 339]
49 | “+++” (>50 = +++) | 348 (ALAKPPVVSV; listed as Homo sapiens) [compound 348]
50 | “+++” (>50 = +++) | 311 (LLVDVEPKV; listed as Homo sapiens) [compound 311]
51 | “+++” (>50 = +++) | 253 (NLWSVDGEVTV; listed as Homo sapiens) [compound 253]
52 | “+++” (>50 = +++) | 350 (ALEDRVWEL; listed as Homo sapiens) [compound 350]
53 | “+++” (>50 = +++) | 286 (FLLEDLSQKL; listed as Homo sapiens) [compound 286]
54 | “++” (>20% = ++) | 40 (FLDEDDMSL; listed as Homo sapiens) [compound 40]
55 | “+++” (>50 = +++) | 4 (VIAELPPKVSV; listed as Homo sapiens) [compound 4]
56 | “+++” (>50 = +++) | 167 (TLDTSKLYV; listed as Homo sapiens) [compound 167]
57 | “+++” (>50 = +++) | 20 (ALVDPGPDFVV; listed as Homo sapiens) [compound 20]
58 | “+++” (>50 = +++) | 149 (SLDNGGYYI; listed as Homo sapiens) [compound 149]
59 | “++” (>20% = ++) | 28 (AVLHLLLSV; listed as Homo sapiens) [compound 28]
60 | “+++” (>50 = +++) | 171 (TLVPPAALISI; listed as Homo sapiens) [compound 171]
61 | “+++” (>50 = +++) | 312 (LLYNSTDPTL; listed as Homo sapiens) [compound 312]
